Test results as given in patent US20220363763A1 (ABL BIO, published 2022).
Each block holds one binder with its values, some of them ahead of it.

How the values were obtained:
[1] = target: T1, human LAG3 (construct not stated) (human, UniProt P18627 23-450, limits assumed); assay: BLI Octet Red 96, affinity ranking
T1 construct: also called human LAG3 protein; antigen
T1 sequence (looked up): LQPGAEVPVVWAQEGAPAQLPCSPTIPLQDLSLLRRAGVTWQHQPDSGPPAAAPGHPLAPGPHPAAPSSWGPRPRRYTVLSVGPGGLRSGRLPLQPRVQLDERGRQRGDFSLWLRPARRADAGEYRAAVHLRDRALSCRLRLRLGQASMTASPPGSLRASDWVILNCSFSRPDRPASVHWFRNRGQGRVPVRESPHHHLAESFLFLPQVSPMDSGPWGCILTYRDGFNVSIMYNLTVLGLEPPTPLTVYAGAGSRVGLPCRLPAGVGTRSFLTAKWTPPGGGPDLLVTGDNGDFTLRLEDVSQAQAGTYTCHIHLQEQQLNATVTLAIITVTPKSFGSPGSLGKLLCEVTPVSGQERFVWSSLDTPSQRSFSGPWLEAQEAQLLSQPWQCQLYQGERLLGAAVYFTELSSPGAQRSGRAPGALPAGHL

[2] = target: T1, human LAG3 (construct not stated); assay: BLI Octet Red 96, full kinetics, antigen 50-3.125 nM
Experimental: The binding affinity was calculated by software in Octet® RED96 System.

[3] = target: T2, human PD-L1 (construct not stated) (human, UniProt Q9NZQ7 19-239, limits assumed); assay: SPR Biacore, affinity ranking
T2 construct: also called B7-H1 (PD-L1); PD-L1 protein
T2 sequence (Q9NZQ7 19-239 limits assumed): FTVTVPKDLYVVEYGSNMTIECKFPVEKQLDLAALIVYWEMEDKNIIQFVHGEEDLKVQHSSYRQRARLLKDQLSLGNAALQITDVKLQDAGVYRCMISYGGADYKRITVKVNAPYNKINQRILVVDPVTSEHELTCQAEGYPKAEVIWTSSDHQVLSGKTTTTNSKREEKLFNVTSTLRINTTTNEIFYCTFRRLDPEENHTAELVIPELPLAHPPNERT

[4] = target: T3, human PD-L1 expressed on mammalian cells (human, UniProt Q9NZQ7 19-290); assay: FACS receptor blocking on PDL1-CHOK1 cells, competitor Bio-PD1 (30 µg/ml)
T3 construct: whole, on cells; also called PDL1-CHOK1 cells; PDL1-Raji cells
T3 sequence (Q9NZQ7 19-290): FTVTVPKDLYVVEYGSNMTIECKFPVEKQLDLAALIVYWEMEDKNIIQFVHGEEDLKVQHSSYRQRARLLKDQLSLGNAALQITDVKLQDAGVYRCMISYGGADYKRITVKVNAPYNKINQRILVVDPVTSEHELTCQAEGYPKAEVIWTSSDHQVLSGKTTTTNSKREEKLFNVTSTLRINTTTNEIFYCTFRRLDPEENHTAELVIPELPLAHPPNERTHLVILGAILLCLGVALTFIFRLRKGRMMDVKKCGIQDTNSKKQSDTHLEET
Experimental: To evaluate the blocking effect of humanized antibodies on human PD-L1 expressed on mammalian cells to bind to its receptor PD-1, the FACS-based receptor blocking assay was employed. Briefly, PDL1-CHOK1 cells were firstly incubated with 3-fold serious diluted HL1210-3 mouse mAb starting at 20 μg/ml at RT for 1 hour. After wash by FACS buffer (PBS with 2% FBS), the biotin-labeled huPD-1 were added to each well and incubated at RT for 1 hour. Then, the Streptavidin-PE was added to each well for 0.5 hour post twice wash with FACS buffer. The mean florescence intensity (MFI) of PE was evaluated by FACSAriaIII.

[5] = target: T4, human PD-L1-his taq protein (human, UniProt Q9NZQ7 19-239, limits assumed); assay: SPR Biacore T200, antibody captured, PD-L1-his injected
T4 construct: also called recombinant PD-L1 protein; recombinant human PD-L1; not shown: his tag
T4 sequence (Q9NZQ7 19-239 limits assumed): as the sequence (Q9NZQ7 19-239 limits assumed) above
Experimental: The binding of the humanized antibodies to recombinant PD-L1 protein (human PD-L1-his taq) was tested by BIACORE™ using a capture method. The HL1210-3 mouse mAb were captured using anti-mouse Fc antibody coated on a CM5 chip. A series dilution of human PD-L1-his taq protein was injected over captured antibody for 3 mins at a flow rate of […]. The antigen was allowed to dissociate for 900 s. All the experiments were carried out on a Biacore T200.

Kd [1]: 15.3 nM
koff [1]: 0.00184 s⁻¹
kon [1]: 120000 M⁻¹ s⁻¹
Kd [2]: 24.8 nM
koff [2]: 0.00259 s⁻¹
kon [2]: 105000 M⁻¹ s⁻¹
B1: 147H-6 (antibody, V domains shown)
VH: QVQLVQSGAEVKKPGASVKVSCKASGYTFTNYWLGWIKQAPGQGLEWIGDIYPGGDYINYNEKFKGKATLTADTSISTAYMELSRLRSDDTAVYYCARPNLPGDYWGQGTTVTVSS
VL: DIVMTQSPLSLPVTPGEPASISCRSSKSLLHSNGITYLYWYLQKPGQSPQLLIYQVSNLASGVPDRFSGSGSGTDFTLKISRVEAEDVGVYYCAQNLELPWTFGGGTKVEIK
notes: Common light chain; human gamma 1 / kappa constant domains

Kd [2]: 27.1 nM
koff [2]: 0.00217 s⁻¹
kon [2]: 80100 M⁻¹ s⁻¹
B2: 147H chimeric antibody (antibody, V domains shown)
VH: QVQLQQSGSELVRPGTSVKISCKASGYTFTNYWLGWIKQRPGHGLEWIGDIYPGGDYINYNEKFKGKATLSADTSSSTAYMQLSSLTSEDSAVYFCARPNLPGDYWGQGTSVTVSS
VL: DIVMTQAAFSNPVTLGTSASISCRSSKSLLHSNGITYLYWYLQKPGQSPQLLIYQVSNLASGVPGRFSGSGSGTDFTLRISRVEAEDVGVYYCAQNLELPWTFGGGTKLEIK

Kd [1]: 23.2 nM
koff [1]: 0.0025 s⁻¹
kon [1]: 108000 M⁻¹ s⁻¹
Kd [2]: 20.7 nM
koff [2]: 0.00204 s⁻¹
kon [2]: 98700 M⁻¹ s⁻¹
B3: 147H-14 (antibody, V domains shown)
VH: EVQLVQSGAEVKKPGASVKVSCKASGYTFTNYWLGWIKQAPGQGLEWIGDIYPGGDYINYNEKFKGKATLTADTSISTAYMELSRLRSDDTAVYFCARPNLPGDYWGQGTTVTVSS
VL: DIVMTQSPLSLPVTPGEPASISCRSSKSLLHSNGITYLYWYLQKPGQSPQLLIYQVSNLASGVPDRFSGSGSGTDFTLKISRVEAEDVGVYYCAQNLELPWTFGGGTKVEIK
notes: as for B1

Kd [1]: 15.7 nM
koff [1]: 0.00239 s⁻¹
kon [1]: 152000 M⁻¹ s⁻¹
Kd [2]: 26.5 nM
koff [2]: 0.00312 s⁻¹
kon [2]: 118000 M⁻¹ s⁻¹
B4: 147H-7 (antibody, V domains shown)
VH: QVQLVQSGAEVKKPGASVKVSCKASGYTFTNYWLGWIKQAPGQGLEWIGDIYPGGDYINYNEKFKGKATLTADTSISTAYMELSRLRSDDTAVYFCARPNLPGDYWGQGTTVTVSS
VL: DIVMTQSPLSLPVTPGEPASISCRSSKSLLHSNGITYLYWYLQKPGQSPQLLIYQVSNLASGVPDRFSGSGSGTDFTLKISRVEAEDVGVYYCAQNLELPWTFGGGTKVEIK
notes: as for B1

Kd [3]: 2.55 nM
koff [3]: 0.000475 s⁻¹
kon [3]: 187000 M⁻¹ s⁻¹
B5: A2 (antibody, V domains shown)
VH: EVQLVESGGGLVQPGGSLRLSCAASGFTFSSYDMSWVRQAPGKSLEWVATISDAGGYIYYRDSVKGRFTISRDNAKNSLYLQMNSLRDEDTAVYICARELRGRYALDYWGQGTTVTVSS
VL: DIQMTQSPSSLSASVGDRVTITCKASQDVTPAVAWYQQKPGKAPKLLIYSTSSRYTGVPSRFSGSGSGTDFTFTISSLQPEDIATYYCQQHYTTPLTFGQGTKLEIK

TOP [4]: 92.9
Kd [5]: 0.786 nM
koff [5]: 0.000117 s⁻¹
kon [5]: 149000 M⁻¹ s⁻¹
B6: Hu1210-31 (antibody, V domains shown)
VH: EVQLVESGGGLVQPGGSLRLSCAASGFTFSSYDMSWVRQAPGKGLEWVATISDGGGYIYYSDSVKGRFTISRDNAKNSLYLQMNSLRAEDTAVYICAREFGKRYALDYWGQGTTVTVSS
VL: DIQMTQSPSSLSASVGDRVTITCKASQDVTPAVAWYQQKPGKAPKLLIYSTSSRYTGVPSRFSGSGSGTDFTLTISSLQPEDFATYYCQQHYTTPLTFGQGTKLEIKR
notes: Hu1210 VH.5b x Vk.2; human gamma 1 / kappa constant domains

TOP [4]: 104
B7: Hu1210-27 (antibody, V domains shown)
VH: EVQLVESGGGLVQPGGSLRLSCAASGFTFSSYDMSWVRQAPGKGLEWVATISDGGGYIYYSDSVKGRFTISRDNAKNSLYLQMNSLRAEDTAVYICAREFGKRYALDYWGQGTLVTVSS
VL: DIQMTQSPSSLSASVGDRVTITCKASQDVTPAVAWYQQKPGKAPKLLIYSTSSRYTGVPSRFSGSGSGTDFTLTISSLQPEDFATYYCQQHYTTPLTFGQGTKLEIKR
notes: Hu1210 VH.5a x Vk.2; human gamma 1 / kappa constant domains

Kd [3]: 1.37 nM
koff [3]: 0.000299 s⁻¹
kon [3]: 218000 M⁻¹ s⁻¹
B8: C3 (antibody, V domains shown)
VH: EVQLVESGGGLVQPGGSLRLSCAASGFTFSSYDMSWVRQAPGKSLEWVATISDAGGYIYYRDSVKGRFTISRDNAKNSLYLQMNSLRDEDTAVYICARELHFRYALDYWGQGTTVTVSS
VL: DIQMTQSPSSLSASVGDRVTITCKASQDVTPAVAWYQQKPGKAPKLLIYSTSSRYTGVPSRFSGSGSGTDFTFTISSLQPEDIATYYCQQHYTTPLTFGQGTKLEIK

Kd [3]: 1.6 nM
koff [3]: 0.000261 s⁻¹
kon [3]: 163000 M⁻¹ s⁻¹
B9: B1 (antibody, V domains shown)
VH: EVQLVESGGGLVQPGGSLRLSCAASGFTFSSYDMSWVRQAPGKSLEWVATISDAGGYIYYRDSVKGRFTISRDNAKNSLYLQMNSLRDEDTAVYICAREIFNRYALDYWGQGTTVTVSS
VL: DIQMTQSPSSLSASVGDRVTITCKASQDVTPAVAWYQQKPGKAPKLLIYSTSSRYTGVPSRFSGSGSGTDFTFTISSLQPEDIATYYCQQHYTTPLTFGQGTKLEIK

Kd [3]: 2.49 nM
koff [3]: 0.000296 s⁻¹
kon [3]: 119000 M⁻¹ s⁻¹
B10: B3 (antibody, V domains shown)
VH: EVQLVESGGGLVQPGGSLRLSCAASGFTFSSYDMSWVRQAPGKSLEWVATISDAGGYIYYRDSVKGRFTISRDNAKNSLYLQMNSLRDEDTAVYICAREFGKRYALDYWGQGTTVTVSS
VL: DIQMTQSPSSLSASVGDRVTITCKAKQDVTPAVAWYQQKPGKAPKLLIYSTSSRYTGVPSRFSGSGSGTDFTFTISSLQPEDIATYYCMQHYTTPLTFGQGTKLEIK

Kd [3]: 1.63 nM
koff [3]: 0.000334 s⁻¹
kon [3]: 206000 M⁻¹ s⁻¹
B11: C6 (antibody, V domains shown)
VH: EVQLVESGGGLVQPGGSLRLSCAASGFTFSSYDMSWVRQAPGKSLEWVATISDAGGYIYYRDSVKGRFTISRDNAKNSLYLQMNSLRDEDTAVYICARELYFRYALDYWGQGTTVTVSS
VL: DIQMTQSPSSLSASVGDRVTITCKASQDVTPAVAWYQQKPGKAPKLLIYSTSSRYTGVPSRFSGSGSGTDFTFTISSLQPEDIATYYCQQHYTTPLTFGQGTKLEIK

Kd [3]: 4.5 nM
koff [3]: 0.000506 s⁻¹
kon [3]: 113000 M⁻¹ s⁻¹
B12: C4 (antibody, V domains shown)
VH: EVQLVESGGGLVQPGGSLRLSCAASGFTFSSYDMSWVRQAPGKSLEWVATISDAGGYIYYRDSVKGRFTISRDNAKNSLYLQMNSLRDEDTAVYICAREFGKRYALDSWGQGTTVTVSS
VL: DIQMTQSPSSLSASVGDRVTITCKASQDVWPAVAWYQQKPGKAPKLLIYSTSSRYTGVPSRFSGSGSGTDFTFTISSLQPEDIATYYCQQHSTTPLTFGQGTKLEIK

TOP [4]: 91.8
Kd [5]: 0.538 nM
koff [5]: 7.85e-05 s⁻¹
kon [5]: 146000 M⁻¹ s⁻¹
B13: Hu1210-36 (antibody, V domains shown)
VH: EVQLVESGGGLVQPGGSLRLSCAASGFTFSSYDMSWVRQTPEKSLEWVATISDGGGYIYYSDSVKGRFTISRDNAKNNLYLQMNSLRAEDTAVYICAREFGKRYALDYWGQGTLVTVSS
VL: DIQMTQSPSSLSASVGDRVTITCKASQDVTPAVAWYQQKPGKAPKLLIYSTSSRYTGVPSRFSGSGSGTDFTLTISSLQPEDFATYYCQQHYTTPLTFGQGTKLEIKR
notes: Hu1210 VH.5d (printed 'VH.Sd') x Vk.2; human gamma 1 / kappa constant domains

Kd [3]: 1.49 nM
koff [3]: 0.000324 s⁻¹
kon [3]: 218000 M⁻¹ s⁻¹
B14: A3 (antibody, V domains shown)
VH: EVQLVESGGGLVQPGGSLRLSCAASGFTFSSYDMSWVRQAPGKSLEWVATISDAGGYIYYRDSVKGRFTISRDNAKNSLYLQMNSLRDEDTAVYICAREFGKRYALDYWGQGTTVTVSS
VL: DIQMTQSPSSLSASVGDRVTITCKASQDVTPAVAWYQQKPGKAPKLLIYSTSSRYTGVPSRFSGSGSGTDFTFTISSLQPEDIATYYCQQHSDAPLTFGQGTKLEIK
